Data from PMC5322387 (2017).

B1: PDK1 (protein)
chain: not shown
modifications: lipoylated, DANS-As-labeled L2S
B2: PDK4 (protein)
chain: not shown
modifications: dapoxyl-labeled L3S'
B3: E2 L1 L1 lipoyl domain (protein)
chain: HQKVPLPSLSPTMQAGTIARWEKKEGDKINEGDLIAEVETDKATVGFESLEECYMAKILVAEGTRDVPIGAIICITV
B4: PDK1 (protein)
chain: not shown
modifications: L1 lipoylation Lys to Ala, lipoylated, DANS-As-labeled
B5: PDK1 (protein)
chain: not shown
modifications: L2 lipoylation Lys to Ala, lipoylated, DANS-As-labeled
B6: PDK1 (protein)
chain: not shown
modifications: lipoylated, DANS-As-labeled L1
B7: PDK3 (protein)
chain: not shown
modifications: lipoylated, DANS-As-labeled L2S
B8: PDK4 (protein)
chain: not shown
modifications: L2 lipoylation Lys to Ala, lipoylated, DANS-As-labeled
B9: PDK4 (protein)
chain: not shown
modifications: L1 lipoylation Lys to Ala, lipoylated, DANS-As-labeled
B10: E3BP L3S' L3S' didomain (protein)
chain: PIKILMPSLSPTMEEGNIVKWLKKEGEAVSAGDALCEIETDKAVVTLDASDDGILAKIVVEEGSKNIRLGSLIGLIVEEGEDWKHVEIPKDVGPPPPVSKPSEPRPSPEPQISIPVKKEHIPGTLRFRLSPAARNILEKHSLDASQGTATGPRGIFTKEDALKLV
B11: PDK3 (protein)
chain: not shown
modifications: lipoylated, DANS-As-labeled L1
B12: PDK4 (protein)
chain: not shown
modifications: lipoylated, DANS-As-labeled L1
B13: PDK3 (protein)
chain: not shown
modifications: lipoylated, DANS-As-labeled L3S'
B14: E2 L2S L2S didomain (protein)
chain: HMQVLLPALSPTMTMGTVQRWEKKVGEKLSEGDLLAEIETDKATIGFEVQEEGYLAKILVPEGTRDVPLGTPLCIIVEKEADISAFADYRPTEVTDLKPQVPPPTPPPVAAVPPTPQPLAPTPSAPCPATPAGPKGRVFVSPLAKKLAVEKGIDLTQVKGTGPDGRITKKDIDSFV
B15: E2 L1L2S-ML1 L1L2S tridomain (protein)
chain: HQKVPLPSLSPTMQAGTIARWEKKEGDKINEGDLIAEVETDKATVGFESLEECYMAKILVAEGTRDVPIGAIICITVGKPEDIEAFKNYTLDSSAAPTPQAAPAPTPAATASPPTPSAQAPGSSYPPHMQVLLPALSPTMTMGTVQRWEKKVGEKLSEGDLLAEIETDKATIGFEVQEEGYLAKILVPEGTRDVPLGTPLCIIVEKEADISAFADYRPTEVTDLKPQVPPPTPPPVAAVPPTPQPLAPTPSAPCPATPAGPKGRVFVSPLAKKLAVEKGIDLTQVKGTGPDGRITKKDIDSFV
B16: E2 L1L2S-ML2 L1L2S tridomain (protein)
chain: B15 chain
B17: PDK4 (protein)
chain: not shown
modifications: lipoylated, DANS-As-labeled L2S
B18: PDK3 (protein)
chain: not shown
modifications: L1 lipoylation Lys to Ala, lipoylated, DANS-As-labeled
B19: PDK4 (protein)
chain: not shown
modifications: lipoylated, DANS-As-labeled L3S'
B20: PDK3 (protein)
chain: not shown
modifications: L2 lipoylation Lys to Ala, lipoylated, DANS-As-labeled

Tests used:
[1] = target: B14; assay: fluorescence titration
[2] = target: B10; assay: fluorescence titration
[3] = target: T1, PDK2 (Homo sapiens, UniProt Q15119); assay: fluorescence titration
[4] = target: B15; assay: fluorescence titration
[5] = target: B16; assay: fluorescence titration
[6] = target: B3; assay: fluorescence titration
[7] = target: T1, PDK2; assay: fluorescence titration (quenching)
[8] = target: B10; assay: fluorescence titration (quenching)

Binder: B1
Kd [1]: 17100 nM

Binder: B2
Kd [2]: 5020 nM

Binder: B3
Kd [3]: 910 nM

Binder: B4
Kd [4]: 2100 nM

Binder: B5
Kd [5]: 3620 nM

Binder: B6
Kd [6]: 4430 nM

Binder: B7
Kd [1]: 1210 nM

Binder: B8
Kd [5]: 397 nM

Binder: B9
Kd [4]: 270 nM

Binder: B10
Kd [3]: 2070 nM
Kd [7]: 25 nM

Binder: B11
Kd [6]: 620 nM

Binder: B12
Kd [6]: 350 nM

Binder: B13
Kd [8]: 103 nM

Binder: B14
Kd [3]: 1380 nM

Binder: B15
Kd [3]: 890 nM

Binder: B16
Kd [3]: 640 nM

Binder: B17
Kd [1]: 2070 nM

Binder: B18
Kd [4]: 540 nM

Binder: B19
Kd [2]: 5930 nM

Binder: B20
Kd [5]: 396 nM
